Literature values, collected in article PMC10793677.

How the values were obtained:
CD73 (Mus musculus) = CD73 (Mus musculus) (UniProt Q61503); assay: flow cytometry and SPR
CD73 (Homo sapiens) = CD73 (Homo sapiens) (UniProt P21589); assay: flow cytometry and SPR
UniProt P21589, sequence (P21589 27-549): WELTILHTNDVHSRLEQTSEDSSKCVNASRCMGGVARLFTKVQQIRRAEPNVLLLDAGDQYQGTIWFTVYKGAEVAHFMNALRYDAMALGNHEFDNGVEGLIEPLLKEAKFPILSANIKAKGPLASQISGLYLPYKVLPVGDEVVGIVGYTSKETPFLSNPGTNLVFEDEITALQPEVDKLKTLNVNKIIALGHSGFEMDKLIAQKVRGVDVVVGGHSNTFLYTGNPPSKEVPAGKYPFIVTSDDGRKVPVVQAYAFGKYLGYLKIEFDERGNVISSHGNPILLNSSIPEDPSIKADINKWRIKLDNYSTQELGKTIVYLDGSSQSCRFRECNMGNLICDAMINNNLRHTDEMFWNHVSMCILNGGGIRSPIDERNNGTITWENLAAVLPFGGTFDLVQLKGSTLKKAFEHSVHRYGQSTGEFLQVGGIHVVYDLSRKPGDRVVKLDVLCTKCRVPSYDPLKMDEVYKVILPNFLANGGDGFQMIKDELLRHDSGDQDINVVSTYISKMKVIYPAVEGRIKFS

UniProt Q61503, sequence (Q61503 29-551): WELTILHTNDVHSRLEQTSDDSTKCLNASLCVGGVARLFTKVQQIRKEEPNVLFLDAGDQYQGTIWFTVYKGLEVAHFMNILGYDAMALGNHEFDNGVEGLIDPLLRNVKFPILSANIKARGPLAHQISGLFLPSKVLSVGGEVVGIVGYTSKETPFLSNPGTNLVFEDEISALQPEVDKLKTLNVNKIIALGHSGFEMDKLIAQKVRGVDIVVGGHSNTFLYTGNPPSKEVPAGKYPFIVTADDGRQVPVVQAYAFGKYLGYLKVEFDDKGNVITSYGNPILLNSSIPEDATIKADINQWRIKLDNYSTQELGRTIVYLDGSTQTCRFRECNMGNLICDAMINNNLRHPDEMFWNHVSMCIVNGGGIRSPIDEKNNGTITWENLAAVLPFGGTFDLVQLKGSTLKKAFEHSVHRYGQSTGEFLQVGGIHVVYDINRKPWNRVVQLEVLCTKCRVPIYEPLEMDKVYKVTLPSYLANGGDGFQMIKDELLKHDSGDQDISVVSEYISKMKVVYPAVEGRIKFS

## Oleclumab
CD73 (Mus musculus)
  Kd: 0.113 nM
CD73 (Homo sapiens)
  Kd: 0.154 nM
